Two substances from patent publication US20230093512A1 can be followed below.

pEC50, pKd: −log10 of the molar value. Where two headings read alike, the source gives them in different places.

For experiment [1], the target named is TGF-β1. Description: ELISA: TGF-β1 coated on the plate, HRP-conjugated 2nd antibody, OD450. (In general: An ELISA detects its analyte on a solid surface through an enzyme-linked reagent.)
Experiment [2] has as its target TGF-β2. The experiment can be described thus: ELISA: TGF-β2 coated on the plate, HRP-conjugated 2nd antibody, OD450.
Experiment [3] deals with TGF-β1. The experiment can be described thus: ELISA: TGF-β1 coated on the plate, HRP-conjugated 2nd antibody, OD450. The source holds these as a separate data set.
For experiment [4], the target named is TGF-β1. Description: SPR, TGFβ ligand amine-coupled to chip, fusion protein as analyte, 25 °C, HBS-EP. (In general: In SPR one partner is held on a chip, and binding of the other changes the refractive index at the surface.)
The target of experiment [5] is TGF-β3. Described as above.
Experiment [6] deals with TGF-β2. The experiment is described as above.
Experiment [7] addresses TGF-β2. Description: ELISA: TGF-β2 coated on the plate, HRP-conjugated 2nd antibody, OD450. The source holds these as a separate data set.
For experiment [8], the target named is TGF-β3. Description: ELISA: TGF-β3 coated on the plate, HRP-conjugated 2nd antibody, OD450.
The target in experiment [9] is TGF-β3. Described as above. This is another data set of the same source.
Experiment [10] addresses human PD-L1 (PD-L1 aAPC/CHO-K1 cells) (human) (UniProt Q9NZQ7).
Experiment [11] concerns the target PD-L1 that is over expressed on CHO-K1 cells (Homo sapiens (Human)) (UniProt Q9NZQ7). The experiment can be described thus: flow cytometry (FACS) on CHO-K1 cells over expressing PD-L1, geometric mean. In general terms: Flow cytometry measures light scatter and fluorescence of single cells or particles in a stream.
For experiment [12], the target named is human PD-L1 (PD-L1 aAPC/CHO-K1 cells) (human) (UniProt Q9NZQ7). The source holds these as a separate data set.
Sequence of human PD-L1 (PD-L1 aAPC/CHO-K1 cells) (human) (Q9NZQ7 19-290): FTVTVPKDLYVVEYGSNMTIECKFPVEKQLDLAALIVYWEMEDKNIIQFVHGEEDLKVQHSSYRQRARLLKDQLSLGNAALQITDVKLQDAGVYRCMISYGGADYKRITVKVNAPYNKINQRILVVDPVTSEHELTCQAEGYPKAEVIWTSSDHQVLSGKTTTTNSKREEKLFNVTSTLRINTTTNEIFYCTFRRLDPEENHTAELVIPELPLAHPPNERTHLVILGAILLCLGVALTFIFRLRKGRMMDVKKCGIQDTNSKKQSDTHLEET

Sequence of TGF-β2 (P61812 303-414): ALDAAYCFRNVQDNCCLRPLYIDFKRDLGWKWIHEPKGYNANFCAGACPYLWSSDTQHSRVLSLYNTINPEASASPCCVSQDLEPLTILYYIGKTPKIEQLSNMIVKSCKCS
Sequence of TGF-β1 (P01137 279-390): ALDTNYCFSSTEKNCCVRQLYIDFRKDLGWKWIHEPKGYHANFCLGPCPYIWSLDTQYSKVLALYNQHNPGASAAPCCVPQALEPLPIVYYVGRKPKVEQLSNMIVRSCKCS
Sequence of TGF-β3 (P10600 301-412): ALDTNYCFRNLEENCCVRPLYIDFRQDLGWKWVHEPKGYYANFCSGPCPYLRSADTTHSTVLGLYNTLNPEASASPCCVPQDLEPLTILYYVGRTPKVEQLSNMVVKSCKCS
Sequence of PD-L1 that is over expressed on CHO-K1 cells (Homo sapiens (Human)) (Q9NZQ7 19-290 limits assumed): as the sequence (Q9NZQ7 19-290) above

For M7824, the concentration giving a half-maximal response (EC50) – broadly, the concentration needed to bring the measured effect to its halfway point – was 0.327 µg/mL in the experiment with TGF-β1 [1]; 0.348 µg/mL with TGF-β2 [2]; 0.255 µg/mL with TGF-β1 [3]; 0.432 µg/mL with TGF-β2 [7]; 0.278 µg/mL with TGF-β3 [8]; 0.307 µg/mL with TGF-β3 [9]. Further, the figures for the pKd with TGF-β1 [4], in the experiment with TGF-β3 [5] and with TGF-β2 [6] were 9.03, 8.99 and 8.34, respectively. For the same substance, the figures for the dissociation rate constant (koff) with TGF-β1 [4], in the experiment with TGF-β3 [5] and with TGF-β2 [6] were 0.000315 s⁻¹, 0.00032 s⁻¹ and 0.00132 s⁻¹, respectively. The figures for the association rate constant (kon) with TGF-β1 [4], in the experiment with TGF-β3 [5] and with TGF-β2 [6] were 334000 M⁻¹ s⁻¹, 314000 M⁻¹ s⁻¹ and 286000 M⁻¹ s⁻¹, respectively. The figures for the EC50, luminescence (RLU) of PD-1 effector cells co-cultured with PD-L1 aAPC/CHO-K1 cells, PD-1/PD-L1 blockade bioassay in experiment [10] and in experiment [12] were 0.852 nM and 0.77 nM, respectively. Also, in experiment [11], the pEC50 (usually the EC50 on a negative log10 scale, so that one unit is a factor of ten) is 9.46.
Tecentriq (antibody) showed an EC50, luminescence (RLU) of PD-1 effector cells co-cultured with PD-L1 aAPC/CHO-K1 cells, PD-1/PD-L1 blockade bioassay in experiment [10] of 0.398 nM.
